# Test results published in publication PMC2896474, “Thioredoxin A Active-Site Mutants Form Mixed Disulfide Dimers That Resemble Enzyme–Substrate Reaction Intermediates” (Journal of Molecular Biology, 2008).
# Molecular target: the molecule itself
# Test: nonreducing SDS-PAGE + capillary gel electrophoresis (2100 Bioanalyzer); purified His6-tagged BsTrxA proteins alone, ~2.5 μg a lane, nonreducing conditions (no DTT, no AMS); peak integration for dimer-to-monomer ratios; dimer to monomers (Fig. 2a)
row,Protein,stoichiometry N
1,"C32S single-mutant BsTrxA, C-terminal His6-tag (enzyme, B. subtilis 168, UniProt P14949 1-104, looked up, In the homodimer the two chains are joined by a Cys29-Cys29 disulfide bond (crystal structure 2VOC); Vector probably adds Leu-Glu before His6 (surmised); also called C32S BsTrxA; TrxA C32S; source: E. coli BL21(DE3), purified (nickel IMAC HisTrap HP, Superdex 75 gel filtration); not shown: His6, C-terminal, kept) MAIVKATDQSFSAETSEGVVLADFWAPWCGPSKMIAPVLEELDQEMGDKLKIVKIDVDENQETAGKYGVMSIPTLLVLKDGEVVETSVGFKPKEALQELVNKHL",2
2,"C29S single-mutant BsTrxA, C-terminal His6-tag (enzyme, B. subtilis 168, UniProt P14949 1-104, looked up, Vector probably adds Leu-Glu before His6 (surmised); also called C29S BsTrxA; BsTrxA(C29S); source: E. coli BL21(DE3), purified (nickel IMAC HisTrap HP, Superdex 75 gel filtration); not shown: His6, C-terminal, kept) MAIVKATDQSFSAETSEGVVLADFWAPWSGPCKMIAPVLEELDQEMGDKLKIVKIDVDENQETAGKYGVMSIPTLLVLKDGEVVETSVGFKPKEALQELVNKHL",2
